Source: patent publication US20110263825A1 (OSAKA UNIVERSITY, published 2011)

T1: human CD20 antigen (human, UniProt P11836 1-297)
T1 construct: whole, on cells; also called human CD20 molecule
T1 sequence (looked up): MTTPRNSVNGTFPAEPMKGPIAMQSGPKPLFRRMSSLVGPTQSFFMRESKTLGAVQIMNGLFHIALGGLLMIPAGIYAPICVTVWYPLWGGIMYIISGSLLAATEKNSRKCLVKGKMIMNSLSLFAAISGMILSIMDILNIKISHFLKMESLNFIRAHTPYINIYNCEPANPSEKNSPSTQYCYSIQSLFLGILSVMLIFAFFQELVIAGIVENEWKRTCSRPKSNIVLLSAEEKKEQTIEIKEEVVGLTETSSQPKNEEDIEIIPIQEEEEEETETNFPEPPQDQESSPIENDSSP


Experiments:
human CD20 antigen [1] = biological target: T1, human CD20 antigen; experiment: Scatchard analysis on Raji cells, FITC anti-mouse IgG detection
human CD20 antigen [2] = biological target: T1, human CD20 antigen; experiment: Scatchard analysis on Raji cells, FITC-labeled Protein A detection
human CD20 antigen [3] = biological target: T1, human CD20 antigen; experiment: Scatchard analysis on Raji cells, FITC-labeled Protein A detection; repeated from Table 8

Kd (human CD20 antigen [1]) | Kd (human CD20 antigen [2]) | Kd (human CD20 antigen [3]) | Molecule
6.79 nM |  |  | mouse antibody 2B8
 | 4.38 nM | 4.38 nM | humanized antibody 1782 clone ff (antibody, V domains shown, kg1 constructs (C kappa / C gamma1 vector); also called h1782ff; hz1782-ff14) VH: QVQLVQSGAEVKKPGASVKVSCKASGYTFTSYWMHWVKQAPGQGLEWIGYITPSTGYTDYNKKFKDKATLTADRSSSTAYMELSSLRSEDTAVYYCARSGPYFDVWGAGTTVTVSS VL: DILLTQSPATLSVSPGERATLSCRASQNIGTSIHWYQQRPGQSPRLLIKYASESFSGIPSRFSGSGSGTDFTLTINSLQPEDIADYYCQQSNSWPFTFGSGTKLEIK
 | 6.76 nM | 6.76 nM | humanized antibody 1782 clone fv (antibody, V domains shown, kg1 constructs; also called h1782fv; hz1782-fv02) VH: QVQLVQSGAELKKPGASVKVSCKASGYTFTSYWMHWVKQAPGQGLEWIGYITPSTGYTDYNKKFKDKATLTADRSSSTAYMELSSLRSEDTAVYYCARSGPYFDVWGAGTTVTVSS VL: DILLTQSPATLSVSPGERATLSCRASQNIGTSIHWYQQRPGQSPRLLIKYASESFSGIPSRFSGSGSGTDFTLTINSLQPEDIADYYCQQSNSWPFTFGSGTKLEIK
 | 8.64 nM | 8.64 nM | humanized antibody 1782 clone ss (antibody, V domains shown, kg1 constructs; also called h1782ss; hz1782-ss21) VH: QVQLVQSGAEVKKPGASVKVSCKASGYTFTSYWMHWVKQAPGQGLEWIGYITPSTGYTDYNQKFQGKATLTADRSSSTAYMELSSLRSEDTAVYYCARSGPYFDVWGAGTTVTVSS VL: DILLTQSPATLSLSPGERATLSCRASQNVGTSLHWYQQKPGQSPRLLIKYASERFTGIPSRFSGSGSGTDFTLTISSLEPEDFADYYCQQSNSWPFTFGSGTKLEIK
 | 7.43 nM | 7.43 nM | humanized antibody 1782 clone sf (antibody, V domains shown, kg1 constructs; also called h1782sf; hz1782-sf23) VH: QVQLVQSGAEVKKPGASVKVSCKASGYTFTSYWMHWVKQAPGQGLEWIGYITPSTGYTDYNKKFKDKATLTADRSSSTAYMELSSLRSEDTAVYYCARSGPYFDVWGAGTTVTVSS VL: DILLTQSPATLSLSPGERATLSCRASQNVGTSLHWYQQKPGQSPRLLIKYASERFTGIPSRFSGSGSGTDFTLTISSLEPEDFADYYCQQSNSWPFTFGSGTKLEIK
